Assay [1] addresses T1, recombinant sCD4 comprising the full-length extracellular domain of human CD4 (human, UniProt P01730 26-396).
T1 construct: also called human soluble CD4; human sCD4 protein
The assay can be described thus: SPR (Biacore), antibody amine-coupled on the chip, human sCD4 as analyte, 25 C, 1:1 Langmuir fit. As to the method: (§1) Binding affinity analyses were performed with a Biacore T3000 optical biosensor (GE Healthcare, Piscataway, N.J.). Immobilization of ibalizumab and all the glycan variants were performed following the standard amine coupling procedure. Briefly, carboxyl groups on the sensor chip surface were activated by injection of 35 μL of a solution containing 0.2 M N-(3-dimethylaminopropyl)-N-ethylcarbodiimide and 0.05 M Nhydroxysuccinimide at a flow rate of 5 μL/minute. Next, ibalizumab or its mutant variant, at a concentration of 2 μg/mL in 10 mM sodium-acetate buffer, pH 4.5, was allowed to flow over the chip surface at a rate of 10 μL/minute until the desired level of response units of reacted protein (150-200 RU) was achieved. After unreacted protein was washed out, excess active ester groups on the sensor surface were capped by the injection of 35 μL of 1 M ethanolamine, pH 8.0, at a flow rate of 5 μL/minute. As background to correct instrument and buffer artifacts, a reference was generated under the same conditions with omission of the protein ligand. Binding experiments were performed at 25° C. in HBS-EP buffer (0.01 M HEPES, 0.15M NaCl, 3 mM EDTA, 0.005% vol/vol surfactant P20 (GE Healthcare). Binding kinetics were measured by passing various concentrations of analyte (human sCD4 protein) over the chip surface at a flow rate of 30 μL/minute for 3 min. Dissociation of bound analytes was monitored while the surface was washed for 10 min. Remaining analytes were removed at a flow rate of 50 µL/minute with two 30-sec injections of 10 mM glycine-HCl, pH 2.0. For kinetics data analysis, the kinetic parameters were determined by collectively fitting the overlaid sensograms […] using the BIAevaluation 4.1 software to the 1:1 Langmuir binding model.
(§2) We next evaluated the kinetics of binding of these ibalizumab LMs to human soluble CD4 (sCD4) by surface plasmon resonance. In a Biacore assay using sCD4 as the analyte, WT ibalizumab and LMs bound sCD4 with similar binding kinetics.

Assay [2] has as its target T1, recombinant sCD4 comprising the …. Nature of the assay: SPR (Biacore), sCD4 as analyte; member of the six by its KD in Table 1. As to the method:
as §1, §2

B1: LM30E, ibalizumab light chain mutant with an N-linked glycosylation site at position 30E (antibody, human IgG1, kappa, V domains shown)
VH: QVQLQQSGPEVVKPGASVKMSCKASGYTFTSYVIHWVRQKPGQGLDWIGYINPYNDGTDYDEKFKGKATLTSDTSTSTAYMELSSLRSEDTAVYYCAREKDNYATGAWFAYWGQGTLVTVSS
VL: DIVMTQSPDSLAVSLGERVTMNCKSSQSLLYSTNNATYLAWYQQKPGQSPKLLIYWASTRESGVPDRFSGSGSGTDFTLTISSVQAEDVAVYYCQQYYSYRTFGGGTKLEIKR
With B1, in assay [1], the Kd came out at 1.4 nM, the koff worked out at 0.00015 s⁻¹ and the kon worked out at 110000 M⁻¹ s⁻¹.

B2: LM67, ibalizumab light chain mutant with an N-linked glycosylation site at position 67 (antibody, human IgG1, kappa, V domains shown)
VH: QVQLQQSGPEVVKPGASVKMSCKASGYTFTSYVIHWVRQKPGQGLDWIGYINPYNDGTDYDEKFKGKATLTSDTSTSTAYMELSSLRSEDTAVYYCAREKDNYATGAWFAYWGQGTLVTVSS
VL: DIVMTQSPDSLAVSLGERVTMNCKSSQSLLYSTNQKNYLAWYQQKPGQSPKLLIYWASTRESGVPDRFSGSGNATDFTLTISSVQAEDVAVYYCQQYYSYRTFGGGTKLEIKR
On to B2, for which the “fold of KD against wild-type ibalizumab” value in assay [2] is at most 2 fold. Moreover, in assay [1], the Kd was 0.8 nM, the koff is 0.0002 s⁻¹ and the on-rate (kon) is 250000 M⁻¹ s⁻¹.

B3: LM65, ibalizumab light chain mutant with an N-linked glycosylation site at position 65 (antibody, human IgG1, kappa, V domains shown)
VH: QVQLQQSGPEVVKPGASVKMSCKASGYTFTSYVIHWVRQKPGQGLDWIGYINPYNDGTDYDEKFKGKATLTSDTSTSTAYMELSSLRSEDTAVYYCAREKDNYATGAWFAYWGQGTLVTVSS
VL: DIVMTQSPDSLAVSLGERVTMNCKSSQSLLYSTNQKNYLAWYQQKPGQSPKLLIYWASTRESGVPDRFSGNATGTDFTLTISSVQAEDVAVYYCQQYYSYRTFGGGTKLEIKR
Turning to B3, in assay [1], the Kd amounted to 1.5 nM, the koff worked out at 0.00049 s⁻¹ and the kon turned out to be 330000 M⁻¹ s⁻¹.

B4: LM54, ibalizumab light chain mutant with an N-linked glycosylation site at position 54 (antibody, human IgG1, kappa, V domains shown)
VH: QVQLQQSGPEVVKPGASVKMSCKASGYTFTSYVIHWVRQKPGQGLDWIGYINPYNDGTDYDEKFKGKATLTSDTSTSTAYMELSSLRSEDTAVYYCAREKDNYATGAWFAYWGQGTLVTVSS
VL: DIVMTQSPDSLAVSLGERVTMNCKSSQSLLYSTNQKNYLAWYQQKPGQSPKLLIYWASTNATGVPDRFSGSGSGTDFTLTISSVQAEDVAVYYCQQYYSYRTFGGGTKLEIKR
Regarding B4, the “fold of KD against wild-type ibalizumab” value in assay [2] is at most 2 fold. Besides, in assay [1], the Kd was 0.73 nM, the koff came to 0.00027 s⁻¹ and the kon came out at 370000 M⁻¹ s⁻¹.

B5: LM53, ibalizumab light chain mutant with an N-linked glycosylation site at position 53 (antibody, human IgG1, kappa, V domains shown)
VH: QVQLQQSGPEVVKPGASVKMSCKASGYTFTSYVIHWVRQKPGQGLDWIGYINPYNDGTDYDEKFKGKATLTSDTSTSTAYMELSSLRSEDTAVYYCAREKDNYATGAWFAYWGQGTLVTVSS
VL: DIVMTQSPDSLAVSLGERVTMNCKSSQSLLYSTNQKNYLAWYQQKPGQSPKLLIYWASNATSGVPDRFSGSGSGTDFTLTISSVQAEDVAVYYCQQYYSYRTFGGGTKLEIKR
As for B5, the “fold of KD against wild-type ibalizumab” value in assay [2] is at most 2 fold. In addition, in assay [1], the Kd is 0.45 nM, the koff came out at 0.00013 s⁻¹ and the kon stood at 290000 M⁻¹ s⁻¹.

B6: LM52, glycan-modified anti-CD4 IgG1 antibody with an N-linked glycan at light chain position 52 (antibody, V domains shown)
VH: QVQLQQSGPEVVKPGASVKMSCKASGYTFTSYVIHWVRQKPGQGLDWIGYINPYNDGTDYDEKFKGKATLTSDTSTSTAYMELSSLRSEDTAVYYCAREKDNYATGAWFAYWGQGTLVTVSS
VL: DIVMTQSPDSLAVSLGERVTMNCKSSQSLLYSTNQKNYLAWYQQKPGQSPKLLIYWANSTESGVPDRFSGSGSGTDFTLTISSVQAEDVAVYYCQQYYSYRTFGGGTKLEIKR
As for B6, in assay [2], the “fold of KD against wild-type ibalizumab” value was at most 2 fold. For the same molecule, in assay [1], the Kd was found to be 0.35 nM, the koff worked out at 0.00016 s⁻¹ and the association rate constant (kon) worked out at 460000 M⁻¹ s⁻¹.

B7: LM60, ibalizumab light chain mutant with an N-linked glycosylation site at position 60 (antibody, human IgG1, kappa, V domains shown)
VH: QVQLQQSGPEVVKPGASVKMSCKASGYTFTSYVIHWVRQKPGQGLDWIGYINPYNDGTDYDEKFKGKATLTSDTSTSTAYMELSSLRSEDTAVYYCAREKDNYATGAWFAYWGQGTLVTVSS
VL: DIVMTQSPDSLAVSLGERVTMNCKSSQSLLYSTNQKNYLAWYQQKPGQSPKLLIYWASTRESGVPNATSGSGSGTDFTLTISSVQAEDVAVYYCQQYYSYRTFGGGTKLEIKR
For the molecule B7, the “fold of KD against wild-type ibalizumab” value in assay [2] is at most 2 fold. In assay [1], the Kd was 0.19 nM, the koff turned out to be 8.3e-05 s⁻¹ and the kon worked out at 440000 M⁻¹ s⁻¹.

B8: LM76, ibalizumab light chain mutant with an N-linked glycosylation site at position 76 (antibody, human IgG1, kappa, V domains shown)
VH: QVQLQQSGPEVVKPGASVKMSCKASGYTFTSYVIHWVRQKPGQGLDWIGYINPYNDGTDYDEKFKGKATLTSDTSTSTAYMELSSLRSEDTAVYYCAREKDNYATGAWFAYWGQGTLVTVSS
VL: DIVMTQSPDSLAVSLGERVTMNCKSSQSLLYSTNQKNYLAWYQQKPGQSPKLLIYWASTRESGVPDRFSGSGSGTDFTLTINATQAEDVAVYYCQQYYSYRTFGGGTKLEIKR
Turning to B8, the “fold of KD against wild-type ibalizumab” value in assay [2] was at most 2 fold. Besides, in assay [1], the Kd was determined as 0.28 nM, the off-rate (koff) came to 0.00014 s⁻¹ and the kon amounted to 500000 M⁻¹ s⁻¹.

As usually defined, the Kd is the concentration at which binding is half-saturated. As usually defined, the koff is the rate constant with which the complex falls apart. In general, kon refers to a measure of how fast the partners come together.

Source of the values: patent publication US20150166662A1 (ROCKEFELLER UNIVERSITY, published 2015).
